Results taken from patent US20140170153A1 (Novo Nordisk, published 2014).
Substitutions are numbered along the chain they refer to. Numbers in names are those of the source. Where “and” joins values, the source holds several entries; their conditions need not be identical. Equal values may be shown once. Each block holds one binder with its values, some of them ahead of it.

How the values were obtained:
[1] = biological target: T1, human recombinant IL-21 (expressed in E. coli as the mature peptide); residues 30-162 of SEQ ID NO: 1 with an … (human, UniProt Q9HBE4 30-162); test: cell-based or functional assay
T1 sequence (Q9HBE4 other isoform, or with tags, fused parts or gaps): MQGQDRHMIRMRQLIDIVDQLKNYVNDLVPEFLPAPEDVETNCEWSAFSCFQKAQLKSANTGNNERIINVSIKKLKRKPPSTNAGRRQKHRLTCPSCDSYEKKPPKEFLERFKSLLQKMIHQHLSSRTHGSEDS

[2] = biological target: T1, human recombinant IL-21 (expressed in …); test: cell-based or functional assay; remark: listed apart in the source
[3] = biological target: T1, human recombinant IL-21 (expressed in …); test: crystal structure, Areaimol (CCP4)
Method: IL-21 (expressed in E. coli as the mature peptide; residues 30-162 of SEQ ID NO: 1 with an added N-terminal Methionine residue), in PBS buffer, pH 7.4 (4 tablets in 2 liter of water, GIBCO Cat. No. 18912-014 Invitrogen Corporation), and anti-IL-21 Fabs (comprising light chains and heavy chains corresponding to WT or mutants of SEQ ID No. 9 and 10, respectively, see example 6 and 14) formulated in PBS buffer, pH 7.4, were mixed in a 1:1 molar ratio. Crystals were grown with the sitting drop-technique with volumes according to Table 7. Total drop sizes were 0.2 or 0.3 μl, depending on the mixing ratio. Crystals were prepared for cryo-freezing by transferring of 3 μl of a cryo-solution, containing 75% of the precipitant solution and 25% glycerol, to the drop containing the crystal. Soakings were allowed for about one minute. The crystals were then fished into a MiTeGen MicroLoop™, flash frozen in liquid N2 and kept at a temperature of 100 K during data collection by a cryogenic N2 gas stream. Crystallographic data were collected at beam-line BL911-3 (Ursby et al., 2004) at MAX-lab, Lund, Sweden, to resolutions indicated in Table 8. Space group determination, integration and scaling of the data were made with the XDS software package (Kabsch, 2010). For the crystal complexes between hIL-21 and Fab56, Fab57 or Fab60, respectively, the Fab35/hIL-21 crystal structure were used as starting models for rigid body refinements in the Refmac5 software (Murshudov et al., 2011) of the CCP4 crystallography software suite (Bailey, 1994). Rigid body refinements were then followed by restrained crystallographic refinements, using the software programs Refmac5 and by computer graphics inspection of the electron density maps, model corrections and building using the Coot software program (Emsley et al., 2010). The procedure was cycled until no further significant improvements could be made to the model. Table 10, 11 and 13.
Table 9 show the calculated (by the software Areaimol (Lee & Richards, 1971, Saff & Kuijlaars, 1997)), average areas excluded in pair-wise interactions for the hIL-21/Fab56, hIL-21/Fab57, hIL-21/Fab59 and hIL-21/Fab60 complexes, respectively.

[4] = biological target: T1, human recombinant IL-21 (expressed in …); test: SPR Biacore T200, 25 C; mAb captured by anti-human Fc, hIL-21 analyte, 1:1 Langmuir; Exp 1
Method: (§1) Anti-human Fc monoclonal antibodies from Biacore human Fc capture kit was immobilized onto flow cells of a CM4 sensor chip according to the manufacturer's instructions. The final immobilization level of capture antibody was approximately 2,500 RU in one experiment. […] Binding of hIL-21 protein was conducted by injecting analyte over all flow cells to allow for comparative analyses of binding to different captured anti-IL-21 antibodies relative to binding to the reference flow cell. hIL-21 protein was diluted serially 1:3 to 2-162 nM into running buffer, injected at 100 μl/min for 210 s and allowed to dissociate for 600 or 14000 s. The CM4 surface was regenerated after each injection cycle of analyte via two injections of 3M MgCl₂ at 50 μl/min. This regeneration step removed the anti-IL-21 antibody and any bound IL-21 from the immobilized capture antibody surface, and allowed for the subsequent binding of the next interaction sample pair.
(§2) No significant non-specific binding to the reference control surface was observed. Binding curves were processed by double referencing (subtraction of reference surface signals as well as blank buffer injections over captured anti-IL-21 antibodies). This allowed correction for instrument noise, bulk shift and drift during sample injections.

[5] = biological target: T1, human recombinant IL-21 (expressed in …); test: SPR Biacore T200, calculated KD; Exp 2
Method: as §1, §2

[6] = biological target: T1, human recombinant IL-21 (expressed in …); test: SPR Biacore T200, 25 C; mAb captured by anti-human Fc, IL-21 analyte, 1:1 Langmuir
Method: (§3) Experiments were run at 25° C. and the samples were stored at 10° C. in the sample compartment. The signal (RU, response units) reported by the Biacore is directly correlated to the mass on the individual sensor chip surfaces in four serial flow cells.
Anti-human Fc monoclonal antibody from Biacore human Fc capture kit was immobilized onto flow cells of a CM4 sensor chip according to the manufacturer's instructions. The final immobilization level of capture antibody was approximately 2,000 RU in one experiment. […] Capture of the human anti-IL-21 antibody mAb37 was conducted by diluting the antibody to 0.1 μg/ml into running buffer (10 mM Hepes 0.3 M NaCl, 5 mM CaCl2, 0.05% surfactant P20, pH 8.0 containing 1 mg/ml BSA) and injected at 10 μl/min for 180 s in one of flow cells 2-4, creating a reference surface in flow cell 1 with only anti-Fc antibody immobilized. […] Binding of IL-21 protein was conducted by injecting analyte over all flow cells to allow for comparative analyses of binding to different captured anti-IL-21 antibodies relative to binding to the reference flow cell. IL-21 protein was diluted serially 1:3 to 0.2-54 nM into running buffer, injected at 100 μl/min for 210 s and allowed to dissociate for 600 or 14000 s. The CM4 surface was regenerated after each injection cycle of analyte via two injections of 3M MgCl₂ at 50 μl/min. This regeneration step removed the anti-IL-21 antibody and any bound IL-21 from the immobilized capture antibody surface, and allowed for the subsequent binding of the next interaction sample pair. […] No significant non-specific binding to the reference control surface was observed.

[7] = biological target: T1, human recombinant IL-21 (expressed in …); test: SPR Biacore T200, 25 C; mAb captured by anti-human Fc, hIL-21 analyte, 1:1 Langmuir; Exp 2
Method: as §1, §2

[8] = biological target: T1, human recombinant IL-21 (expressed in …); test: SPR Biacore T200, 25 C; mAb captured by anti-human Fc, IL-21 analyte, 1:1 Langmuir; remark: listed apart in the source
Method: as §3
Anti-human Fc monoclonal antibody from Biacore human Fc capture kit was immobilized onto flow cells of a CM4 sensor chip according to the manufacturer's instructions. The final immobilization level of capture antibody was approximately 2,000 RU in one experiment. […] Capture of the human anti-IL-21 antibody mAb37 was conducted by diluting the antibody to 0.1 μg/ml into running buffer (10 mM Hepes 0.3 M NaCl, 5 mM CaCl2, 0.05% surfactant P20, pH 8.0 containing 1 mg/ml BSA) and injected at 10 μl/min for 180 s in one of flow cells 2-4, creating a reference surface in flow cell 1 with only anti-Fc antibody immobilized. […] Binding of IL-21 protein was conducted by injecting analyte over all flow cells to allow for comparative analyses of binding to different captured anti-IL-21 antibodies relative to binding to the reference flow cell. IL-21 protein was diluted serially 1:3 to 0.2-54 nM into running buffer, injected at 100 μl/min for 210 s and allowed to dissociate for 600 or 14000 s. The CM4 surface was regenerated after each injection cycle of analyte via two injections of 3M MgCl₂ at 50 μl/min. […]

[9] = biological target: T1, human recombinant IL-21 (expressed in …); test: SPR Biacore T200, calculated KD; Exp 1
Method: as §1, §2

[10] = biological target: T1, human recombinant IL-21 (expressed in …); test: SPR Biacore T200; mAb captured by anti-human Fc, hIL-21 analyte
Method: as §1, §2

Bioactivity as % of RM (mAb37), NK-92 assay (alamarBlue) [1]: 92.1 % of RM (mAb37) | IC50 (nM) in B cell proliferation assay, Donor 1 [2]: 0.16 nM | IC50 (nM) in B cell proliferation assay, Donor 2 [2]: 0.25 nM
B1: mAb63 (mAb37 variant, light chain R24K) (antibody, human IgG4 S228P, kappa, V domains shown)
VH: EVQLVESGGGLVKPGGSLRLSCAASGFIFSSYSMNWVRQAPGKGLEWVSSITSGSYYIHYADSVKGRFTISRDNAKNSLYLQMNSLRAEDTAVYYCVRERGWGYYGMDVWGQGTTVTVSS
VL: AIQLTQSPSSLSASVGDRVTITCKASQDIDSALAWYQQKPGKAPKILIHDASSLESGVPSRFSGSGSGTDFTLTISSLQPEDFATYYCQQFNSYPYTFGQGTKLEIKR

Bioactivity as % of RM (mAb37), NK-92 assay (alamarBlue) [1]: 116 % of RM (mAb37) | IC50 (nM) in B cell proliferation assay, Donor 1 [2]: 0.8 nM | IC50 (nM) in B cell proliferation assay, Donor 2 [2]: 0.74 nM
B2: mAb64 (mAb37 variant, light chain Q27N) (antibody, human IgG4 S228P, kappa, V domains shown)
VH: B1 VH
VL: B1 VL with K24R, Q27N

Kd [10]: < 0.02 nM | koff [4]: < 1e-05 s⁻¹ | kon [4]: 560000 M⁻¹ s⁻¹ and 580000 M⁻¹ s⁻¹ and 600000 M⁻¹ s⁻¹ | Bioactivity as % of RM (mAb37), NK-92 assay (alamarBlue) [1]: 73.2 % of RM (mAb37) | IC50 (nM) in B cell proliferation assay, Donor 2 [2]: 0.23 nM | Kd [9]: < 0.017 nM
B9: mAb62 (mAb37 variant, heavy chain K65R) (antibody, human IgG4 S228P, kappa, V domains shown)
VH: B1 VH with K65R
VL: B1 VL with K24R
notes: Human IgG4(S241P), kappa

Kd [10]: < 0.02 nM | koff [4]: < 1e-05 s⁻¹ | kon [4]: 520000 M⁻¹ s⁻¹ and 530000 M⁻¹ s⁻¹ and 540000 M⁻¹ s⁻¹ | Bioactivity as % of RM (mAb37), NK-92 assay (alamarBlue) [1]: 96.8 % of RM (mAb37) | IC50 (nM) in B cell proliferation assay, Donor 1 [2]: 0.49 nM | IC50 (nM) in B cell proliferation assay, Donor 2 [2]: 0.19 nM | Kd [9]: < 0.019 nM
B10: mAb65 (mAb37 variant, light chain D30E) (antibody, human IgG4 S228P, kappa, V domains shown)
VH: B1 VH
VL: B1 VL with K24R, D30E
notes: Human IgG4(S241P), kappa

More lines, now with the values behind:

B3: Fab35 (Fab fragment of mAb14/mAb37) (Fab, V domains shown)
VH: B1 VH
VL: B1 VL with K24R
notes: also called anti-IL-21 Fab35
Avr Area (average areas excluded in pairwise interactions) [3]: 1060 Å^2

B4: Fab60 (Fab35 with L, D30E mutation; Fab fragment of mAb65) (Fab, V domains shown)
VH: B1 VH
VL: B1 VL with K24R, D30E
notes: also called aIL-21 Fab60
Avr Area (average areas excluded in pairwise interactions) [3]: 1100 Å^2

B5: Fab57 (Fab35 with H: K65R; Fab fragment of mAb62) (Fab, V domains shown)
VH: B1 VH with K65R
VL: B1 VL with K24R
notes: also called aIL-21 Fab57
Avr Area (average areas excluded in pairwise interactions) [3]: 1070 Å^2

B6: Fab56 (Fab35 with H: D62E mutation; Fab fragment of mAb61) (Fab, V domains shown)
VH: B1 VH with D62E
VL: B1 VL with K24R
notes: also called aIL-21 Fab56
Avr Area (average areas excluded in pairwise interactions) [3]: 1070 Å^2

B7: Fab59 (Fab35 with L, Q27N mutation; Fab fragment of mAb64) (Fab, V domains shown)
VH: B1 VH
VL: B1 VL with K24R, Q27N
notes: also called aIL-21 Fab59
Avr Area (average areas excluded in pairwise interactions) [3]: 1170 Å^2

B8: mAb37 (hinge stabilized S241P version of mAb14) (antibody, human IgG4 S228P, kappa)
heavy: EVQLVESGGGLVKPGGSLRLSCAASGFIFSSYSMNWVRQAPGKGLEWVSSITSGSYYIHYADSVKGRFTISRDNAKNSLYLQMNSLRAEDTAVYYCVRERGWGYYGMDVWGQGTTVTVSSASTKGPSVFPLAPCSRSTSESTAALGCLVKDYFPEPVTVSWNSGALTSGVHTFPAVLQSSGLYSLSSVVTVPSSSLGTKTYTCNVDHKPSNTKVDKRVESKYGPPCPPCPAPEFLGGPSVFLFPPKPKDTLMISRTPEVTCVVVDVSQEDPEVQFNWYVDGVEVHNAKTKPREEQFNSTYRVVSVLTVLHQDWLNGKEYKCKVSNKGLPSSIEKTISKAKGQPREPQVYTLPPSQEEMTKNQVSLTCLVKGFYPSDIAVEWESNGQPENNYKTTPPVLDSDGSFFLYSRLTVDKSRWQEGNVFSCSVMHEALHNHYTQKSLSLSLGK
light: AIQLTQSPSSLSASVGDRVTITCRASQDIDSALAWYQQKPGKAPKILIHDASSLESGVPSRFSGSGSGTDFTLTISSLQPEDFATYYCQQFNSYPYTFGQGTKLEIKRTVAAPSVFIFPPSDEQLKSGTASVVCLLNNFYPREAKVQWKVDNALQSGNSQESVTEQDSKDSTYSLSSTLTLSKADYEKHKVYACEVTHQGLSSPVTKSFNRGEC
notes: Human IgG4(S241P), kappa; recombinant from HEK293-6E; also called WT mAb37
koff [4]: < 1e-05 s⁻¹ | kon [4]: 570000 M⁻¹ s⁻¹ and 590000 M⁻¹ s⁻¹ and 580000 M⁻¹ s⁻¹ | Kd [5]: < 0.015 nM | Kd [6]: 0.007 nM and 0.0075 nM and 0.011 nM | koff [6]: 4.5e-06 s⁻¹ and 6.4e-06 s⁻¹ | kon [6]: 640000 M⁻¹ s⁻¹ and 600000 M⁻¹ s⁻¹ | koff [7]: < 1e-05 s⁻¹ | kon [7]: 660000 M⁻¹ s⁻¹ and 620000 M⁻¹ s⁻¹ | Kd [8]: < 0.02 nM | IC50 (nM) in B cell proliferation assay, Donor 1 [2]: 0.14 nM | IC50 (nM) in B cell proliferation assay, Donor 2 [2]: 0.18 nM | Kd [9]: < 0.017 nM

B11: mAb61 (mAb37 variant, heavy chain D62E) (antibody, human IgG4 S228P, kappa, V domains shown)
VH: B1 VH with D62E
VL: B1 VL with K24R
notes: Human IgG4(S241P), kappa
Kd [10]: < 0.02 nM | Kd [5]: < 0.015 nM | Bioactivity as % of RM (mAb37), NK-92 assay (alamarBlue) [1]: 86.2 % of RM (mAb37) | koff [7]: < 1e-05 s⁻¹ | kon [7]: 660000 M⁻¹ s⁻¹ and 670000 M⁻¹ s⁻¹ | IC50 (nM) in B cell proliferation assay, Donor 1 [2]: 0.22 nM | IC50 (nM) in B cell proliferation assay, Donor 2 [2]: 0.21 nM
